Measured values reported in PMC6437863, “Identification and functional characterization of three new terpene synthase genes involved in chemical defense and abiotic stresses in Santalum album” (BMC Plant Biology, 2019).

How the values were obtained:
Test in all cases: malachite green phosphate release after HCl stop, Michaelis-Menten fit
Assay type in all cases: biochemical, Santalum album
Settings in all cases: 10 mM Mg2+, 25 mM HEPES, 30°C, 10 min
[1] = substrate: CC(C)=CCC/C(C)=C/CC/C(C)=C/CO[P@@](=O)(O)OP(=O)(O)O
Description: (§1) malachite green phosphate release after HCl stop, Michaelis-Menten fit on SaTPS2

[2] = substrate: CC(C)=CCC/C(C)=C/COP(=O)(O)OP(=O)(O)O
Description: as §1

[3] = substrate: CC(C)=CCC/C(C)=C/CC/C(C)=C/CO[P@@](=O)(O)OP(=O)(O)O; remark: listed apart in the source
Description: (§2) malachite green phosphate release after HCl stop, Michaelis-Menten fit on SaTPS3

[4] = substrate: CC(C)=CCC/C(C)=C/COP(=O)(O)OP(=O)(O)O; remark: listed apart in the source
Description: as §2

B1: SaTPS2 (Santalum album) (protein)
chain: MDSATLKVLCDNDANVKIEKNPSGNRRSANYEPSIWNYDFLQSLDSCYNIVEEKHLKLAEKLKGEVKSIIKAPMEPLAKLELVDVVQRLGLKHLFETEIKEALFTVYKDGSDAWWLGHLYATSLRFRLLRQAGLFIPQDVFEIFKSATGEFDMKLRDNIEGLLSLYEASFLGWKGENILDEAKAFTTEYLKNAWENIPQKWLAIRVKHALDLPLHWRVPRFEARWFIDAYEREENINPTLLKLAKLDFNMVQSIHQRELGKLARWWVSTGLDKLSFARNNLMQSYMYGTAVTSDPQFKLARETIVKTGSLITIVDDVYDVFGSIDELELYTNFVDRWNCTEVDELPNTIKMIFLAMFNTANEIGFQIQTERGFNGIPALSKAWDDLCKSYIKEAKWYHGKHKPTLQEYLGNAVVSVGFPLLMTTGYVAIADSEGALDKIDRIPDLVRYACLLNRLVNDLATSSDELARGDTLKSIECYMNQTGASEEIAREHIKGLIEDTWKTLNECSFDDSQFGEPFVSFNLNSVRGSHFFYQHGDGYGVTNSWTKDDLMSILINPISVDDES
notes: full-length ORF, 6His-tagged, pET-28a, E. coli Rosetta 2 (DE3), Ni-NTA purified; no plastid transit peptide; SaTPS1 to 3 span 564 to 604 residues
[1]
  Km: 12.15 ± 1.32 µM
  kcat: 0.2 ± 0.008 s⁻¹
  kcat/Km: 16400 M⁻¹ s⁻¹
[2]
  Km: 12.27 ± 1.32 µM
  kcat: 0.189 ± 0.007 s⁻¹
  kcat/Km: 15400 M⁻¹ s⁻¹

B2: SaTPS3 (Santalum album) (protein)
chain: MESFVFLKSATSNANNSVKVDNRRSANYQSSVWDYNFLRLLGTTYTCCDTMEEEHVRIAEKLKEEVKSLIMGSMGPLANLEFIDAVQRLGLKYQFETEIKEALFAIYKDSNEEWWANDLHATALRFRLLRRNLLFVSQDVFERFKDKKTHDFSGELCEDVKGILSLYEACFLGWDGERVLDKARIFTTTHLNAMNRSTVSDGGSLDKKVKHALELPLHWRAPRVEARWFIDVYEQDPNMNLALLKLAKLDFNMVQSIHQKEVGELSRWWVRTGLDKLSFARNGLMQNYMYCCAVTFEPQFAHVREALTKIGSVLTATDDLYDVYGSLEELELFTSFIDRWDIKEIDELPRDIRLIFLAMYNLSNEIGFDILRDRDFNGVPYVAKMLGDVCSAYLKEARWYHGGYKPRMEEYLDNGLVSIGMLPLLAVAYMLTTDNLSKETVDHVAAAAPLVRYCSLLLRMIDDLGTSSDELRRGDTLKSVECYMNQAGASEEIAREHIEELVRNTWKKMNQCCFGDGQSSFADPFLSFTLNSVRGAHFFYQFGDGFGVTESWTKDTVLSVLFQPIPLDED
notes: as for B1
[3]
  Km: 16.29 ± 1.48 µM
  kcat: 0.171 ± 0.006 s⁻¹
  kcat/Km: 10500 M⁻¹ s⁻¹
[4]
  Km: 14.38 ± 1.20 µM
  kcat: 0.257 ± 0.008 s⁻¹
  kcat/Km: 17900 M⁻¹ s⁻¹
